Experimental data from doi:10.1101/2025.10.15.682582, “A recombinant norrin-derived growth factor retains the complete multifunctionality of human norrin” (bioRxiv, 2025).

Target: T1, rhFrizzled-4/FC Chimera (human, UniProt Q9ULV1 37-212)
T1 sequence (looked up): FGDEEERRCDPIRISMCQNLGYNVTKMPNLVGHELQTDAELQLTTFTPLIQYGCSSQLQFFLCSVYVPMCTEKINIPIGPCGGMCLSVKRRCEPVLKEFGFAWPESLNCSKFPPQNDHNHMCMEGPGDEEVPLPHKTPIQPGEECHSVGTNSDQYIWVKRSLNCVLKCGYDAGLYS
Assay: cell-based or functional assay

B1: human recombinant norrin (ligand, UniProt Q00604 25-133, looked up)
chain: KTDSSFIMDSDPRRCMRHHYVDSISHPLYKCSSKMVLLARCEGHCSQASRSEPLVSFSTVLKQPFRSSCHCCRPQTSKLKALRLRCSGGMRLTATYRYILSCHCEECNS
For B1, the “TCF/LEF firefly luciferase reporter in HEK-293 cells transfected with FZD4 and LRP5; average EC50 of 3 assays with human norrin” value was 0.036 µg/mL.
